Assay results taken from patent publication US6756229B1, “Human cell line showing stable expression of cytochromes P450” (Takeda Chemical Industries, Ltd., priority 1999, dated 2004).

Tests used:
[1] = substrate: CC(=O)O[C@H]1C(=O)[C@@]2(C)[C@H]([C@H](OC(=O)c3ccccc3)[C@]3(O)C[C@H](OC(=O)[C@H](O)[C@@H](NC(=O)c4ccccc4)c4ccccc4)C(C)=C1C3(C)C)[C@]1(OC(C)=O)CO[C@@H]1C[C@@H]2O
[2] = substrate: O=[N+]([O-])c1ccc(O)cc1; assay: Kinetic analysis, p-nitrophenol hydroxylase activity in Hepc/2E1.3-8; assay type: cell-based, human; details: other: Hepc/2E1.3-8, Lineweaver-Burk plot, 37.0 °C
Excerpt: 4-Nitrocatechol purchased from Wako Junyaku K. K. was used as the standard substance.

[3] = substrate: CCOc1ccc2nc3ccc(=O)cc-3oc2c1; assay: Kinetic analysis, 7-ethoxyresorufin O-deethylase activity in Hepc/1A1.4; assay type: cell-based, human; details: other: Hepc/1A1.4, Lineweaver-Burk plot, 37.0 °C
Method: (§1) After 1800 μl of methanol (Wako Junyaku K. K) was added to 300 μl of the reaction solution and insoluble material was removed by centrifugation, fluorescent intensity was measured at an excited wavelength of 550 nm and a fluorescence wavelength of 586 nm using a spectrofluorometer to quantify the resorufin formed. The product purchased from Molecular Probes was used as the standard substance for resorufin (Molecular Probes).

[4] = substrate: CCOc1ccc2nc3ccc(=O)cc-3oc2c1; assay: Kinetic analysis, 7-ethoxyresorufin O-deethylase activity in Hepc/1A2.9; assay type: cell-based, human; details: other: Hepc/1A2.9, Lineweaver-Burk plot, 37.0 °C
Method: as §1

B1: CYP2C8 (Homo sapiens) (protein)
chain: MEPFVVLVLCLSFMLLFSLWRQSCRRRKLPPGPTPLPIIGNMLQIDVKDICKSFTNFSKVYGPVFTVYFGMNPIVVFHGYEAVKEALIDNGEEFSGRGNSPISQRITKGLGIISSNGKRWKEIRRFSLTTLRNFGMGKRSIEDRVQEEAHCLVEELRKTKASPCDPTFILGCAPCNVICSVVFQKRFDYKDQNFLTLMKRFNENFRILNSPWIQVCNNFPLLIDCFPGTHNKVLKNVALTRSYIREKVKEHQASLDVNNPRDFIDCFLIKMEQEKDNQKSEFNIENLVGTVADLFVAGTETTSTTLRYGLLLLLKHPEVTAKVQEEIDHVIGRHRSPCMQDRSHMPYTDAVVHEIQRYSDLVPTGVPHAVTTDTKFRNYLIPKGTTIMALLTSVLHDDKEFPNPNIFDPGHFLDKNGNFKKSDYFMPFSAGKRICAGEGLARMELFLFLTTILQNFNLKSVDDLKNLNTTAVTKGIVSLPPSYQICFIPV
Work on B1 yielded a Km [1] of 7.4 µM and a Vmax [1] of 9e-09 µmol/min/mg.

B2: CYP2E1 (Homo sapiens) (protein)
chain: MSALGVTVALLVWAAFLLLVSMWRQVHSSWNLPPGPFPLPIIGNLFQLELKNIPKSFTRLAQRFGPVFTLYVGSQRMVVMHGYKAVKEALLDYKDEFSGRGDLPAFHAHRDRGIIFNNGPTWKDIRRFSLTTLRNYGMGKQGNESRIQREAHFLLEALRKTQGQPFDPTFLIGCAPCNVIADILFRKHFDYNDEKFLRLMYLFNENFHLLSTPWLQLYNNFPSFLHYLPGSHRKVIKNVAEVKEYVSERVKEHHQSLDPNCPRDLTDCLLVEMEKEKHSAERLYTMDGITVTVADLFFAGTETTSTTLRYGLLILMKYPEIEEKLHEEIDRVIGPSRIPAIKDRQEMPYMDAVVHEIQRFITLVPSNLPHEATRDTIFRGYLIPKGTVVVPTLDSVLYDNQEFPDPEKFKPEHFLNENGKFKYSDYFKPFSTGKRVCAGEGLARMELFLLLCAILQHFNLKPLVDPKDIDLSPIHIGFGCIPPRYKLCVIPRS
notes: expressed in transfected cells
For B2, the Km [2] was 88 µM and the Vmax [2] was 0.00012 µmol/min/mg.

B3: CYP1A1 (Homo sapiens) (protein)
chain: MLFPISMSATEFLLASVIFCLVFWVIRASRPQVPKGLKNPPGPWGWPLIGHMLTLGKNPHLALSRMSQQYGDVLQIRIGSTPVVVLSGLDTIRQALVRQGDDFKGRPDLYTFTLISNGQSMSFSPDSGPVWAARRRLAQNGLKSFSIASDPASSTSCYLEEHVSKEAEVLISTLQELMAGPGHFNPYRYVVVSVTNVICAICFGRRYDHNHQELLSLVNLNNNFGEVVGSGNPADFIPILRYLPNPSLNAFKDLNEKFYSFMQKMVKEHYKTFEKGHIRDITDSLIEHCQEKQLDENANVQLSDEKIINIVLDLFGAGFDTVTTAISWSLMYLVMNPRVQRKIQEELDTVIGRSRRPRLSDRSHLPYMEAFILETFRHSSFVPFTIPHSTTRDTSLKGFYIPKGRCVFVNQWQINHDQKLWVNPSEFLPERFLTPDGAIDKVLSEKVIIFGMGKRKCIGETIARWEVFLFLAILLQRVEFSVPLGVKVDMTPIYGLTMKHACCEHFQMQLRS
notes: as for B2
Protein B3 has a Km [3] of 0.25 µM and a Vmax [3] of 5.6e-05 µmol/min/mg.

B4: CYP1A2 (Homo sapiens) (protein)
chain: MALSQSVPFSATELLLASAIFCLVFWVLKGLRPRVPKGLKSPPEPWGWPLLGHVLTLGKNPHLALSRMSQRYGDVLQIRIGSTPVLVLSRLDTIRQALVRQGDDFKGRPDLYTSTLITDGQSLTFSTDSGPVWAARRRLAQNALNTFSIASDPASSSSCYLEEHVSKEAKALISRLQELMAGPGHFDPYNQVVVSVANVIGAMCFGQHFPESSDEMLSLVKNTHEFVETASSGNPLDFFPILRYLPNPALQRFKAFNQRFLWFLQKTVQEHYQDFDKNSVRDITGALFKHSKKGPRASGNLIPQEKIVNLVNDIFGAGFDTVTTAISWSLMYLVTKPEIQRKIQKELDTVIGRERRPRLSDRPQLPYLEAFILETFRHSSFLPFTIPHSTTRDTTLNGFYIPKKCCVFVNQWQVNHDPELWEDPSEFRPERFLTADGTAINKPLSEKMMLFGMGKRRCIGEVLAKWEIFLFLAILLQQLEFSVPPGVKVDLTPIYGLTMKHARCEHVQARLRFSIN
notes: as for B2
With B4 the Km [4] was 0.72 µM and the Vmax [4] was 1.6e-06 µmol/min/mg.
